Results: PMC7884711, “Identification of efficient prokaryotic cell-penetrating peptides with applications in bacterial biotechnology” (Communications Biology, 2021)
Where no end group is shown, it is not given here.

Experiments:
E. coli DH5α cells [1] = experiment: Penetration efficiency of TAMRA-labeled CPPs, electroporation-based method, flow cytometry; type: cell-based, Escherichia coli; conditions: electrocompetent E. coli DH5α, 5 μg TAMRA-CPP, electroporation 1.8 kV; for Cell penetration efficiency (TAMRA fluorescence), Electrooration - Tris buffer: 20 mM Tris-HCl pH 7.5, 1 h; for Cell penetration efficiency (TAMRA fluorescence), Electrooration - DW: distilled water, 1 h
Excerpt: (§1) (Fig. 2a). […] First, we prepared electrocompetent and chemically competent cells.

E. coli DH5α cells [2] = experiment: Penetration efficiency of TAMRA-labeled CPPs, chemical (CaCl2) treatment method, flow cytometry; type: cell-based, Escherichia coli; conditions: for Cell penetration efficiency (TAMRA fluorescence), Chemical (CaCl2) method - Tris buffer / Cell penetration efficiency (TAMRA fluorescence), Chemical (CaCl2) method - DW: 50 mM CaCl2-treated E. coli DH5α, 5 μg TAMRA-CPP; for Cell penetration efficiency (TAMRA fluorescence), Chemical (CaCl2) method - Tris buffer: 20 mM Tris-Cl pH 7.5, 1 h; for Cell penetration efficiency (TAMRA fluorescence), Chemical (CaCl2) method - DW: 5 × 10^7 cells/50 μL, distilled water, 1 h; for Penetration efficiency (TAMRA FI): TAMRA fluorescence intensity in E. coli, library screen of 98 CPPs
Excerpt: as §1

E. coli DH5α cells [3] = experiment: Penetration efficiency of TAMRA-labeled CPPs, non-treated cells (control method), flow cytometry; conditions: 5 μg TAMRA-labeled CPP (0.1 μg/μL), 1 h, PBS washes
Description: For the evaluation and optimization of the electroporation-based method, five efficient CPPs were selected from the previous reports[45],[46] […] The CPP were labeled with TAMRA to trace their penetration into the cytoplasm. First, we prepared electrocompetent and chemically competent cells[46]. As a negative control, we also prepared non-treated cells. After treating the five TAMRA-labeled CPP peptides, either distilled water or 20 mM Tris-Cl (pH = 7.5) was added as a buffer to the E. coli–CPP mixture and incubated at 37 °C for 1 h. After washing the cells, their fluorescence intensities were measured by flow cytometry to quantify CPP delivery efficiency.
Prepared cells at a density of 5 × 10^7 cells/50 μL were treated with 5 μg of TAMRA-labeled CPPs (0.1 μg/μL) and incubated for 1 h at room temperature. After incubation, the cells were washed with 1 × PBS and centrifuged at 7000 rpm for 10 min three times to remove extracellular CPPs.
Then, the cells were washed with 1 × PBS and centrifuged at 7000 rpm for 10 min three times. The fluorescence intensity of the CPPs in E. coli cells was quantitatively measured using a Guava EasyCyte flow cytometer (Millipore, Darmstadt, Germany) with an excitation wavelength of 547 nm and an emission wavelength of 580 nm.

E. coli DH5α cells [4] = experiment: Inhibition of bacterial cell growth by CPPs (Max OD600 relative to control); type: cell-based, Escherichia coli; conditions: for Max OD (%) (Figure 3f): E. coli DH5α diluted 1/1000 in LB, 5 μg TAMRA-CPP (0.1 μg/μL), OD600 monitored 18 h, max OD of treated cells / max OD of control cells; for Growth rate (%): E. coli growth with CPP, relative to control; for Anti-bacterial activity: class (Cytotoxic / Safe), cutoff of 50%
Description: E. coli DH5α cells were grown until OD600 = 1 at 37 °C with shaking at 200 rpm. […] Then, cell growth (OD600) was monitored for 18 h by using the Synergy^TM H1 hybrid multi-mode microplate reader (BioTek, Vermont, USA). As a control, we used E. coli cells that were not treated with CPPs.

[5] = test system: E. coli carrying target plasmid with I-SceI recognition site; experiment: Plasmid removal assay using CPP-conjugated I-SceI; type: cell-based, Escherichia coli
Excerpt: To investigate the applicability of CPPs in plasmid removal using a CPP-conjugated I-SceI restriction enzyme, we constructed three different target plasmids containing a different replication origin: a pSC101 origin (low-copy number), ColE1 origin (mid-copy number), and RSF1030 origin (high-copy number). Then, an I-SceI recognition site was inserted into the target plasmids. In addition, for the selection of plasmid-containing cells and counterselection of plasmid-free cells, the tetA gene (tetracycline resistance gene) was introduced into the target plasmids. The selection and counterselection were conducted by using tetracycline and NiCl2, respectively.
For the plasmid removal experiment, three E. coli strains carrying a target plasmid with a different replication origin were prepared. The plasmids contained an I-SceI restriction site and a replication origin (pSC101, ColE1, or RSF1030). […] Then, the buffer was replaced with 1 × CutSmart buffer, because I-SceI requires the Mg^2+ included in the CutSmart buffer[64] as a cofactor. The cells were further incubated at 37 °C for 2 h and then spread on LB agar plates containing 2 mM NiCl2. The colonies grown on NiCl2-containing plates were transferred to an LB agar plate and a tetracycline-containing LB agar plate in order to confirm whether the plasmids were completely removed from the cells.

## Rev(34-50) (TRQARRNRRRRWRERQR; also: TAMRA label, site not given here) [CPP 15, TAMRA-labeled CPP of the 98-CPP library, one of five used to evaluate delivery methods]
E. coli DH5α cells [1]; replicate 1
  Cell penetration efficiency (TAMRA fluorescence), Electrooration - Tris buffer: 1419.77 A.U.
  Cell penetration efficiency (TAMRA fluorescence), Electrooration - DW: 772.285 A.U.
E. coli DH5α cells [1]; replicate 2
  Cell penetration efficiency (TAMRA fluorescence), Electrooration - Tris buffer: 1626.5 A.U.
  Cell penetration efficiency (TAMRA fluorescence), Electrooration - DW: 531.205 A.U.
E. coli DH5α cells [1]; replicate 3
  Cell penetration efficiency (TAMRA fluorescence), Electrooration - Tris buffer: 1629.96 A.U.
  Cell penetration efficiency (TAMRA fluorescence), Electrooration - DW: 564.956 A.U.
E. coli DH5α cells [1]; replicate 4
  Cell penetration efficiency (TAMRA fluorescence), Electrooration - Tris buffer: 1157.23 A.U.
E. coli DH5α cells [2]; replicate 1
  Cell penetration efficiency (TAMRA fluorescence), Chemical (CaCl2) method - Tris buffer: 103.028 A.U.
  Cell penetration efficiency (TAMRA fluorescence), Chemical (CaCl2) method - DW: 228.73 A.U.
E. coli DH5α cells [2]; replicate 2
  Cell penetration efficiency (TAMRA fluorescence), Chemical (CaCl2) method - Tris buffer: 97.4338 A.U.
  Cell penetration efficiency (TAMRA fluorescence), Chemical (CaCl2) method - DW: 679.736 A.U.
E. coli DH5α cells [2]; replicate 3
  Cell penetration efficiency (TAMRA fluorescence), Chemical (CaCl2) method - Tris buffer: 68.163 A.U.
  Cell penetration efficiency (TAMRA fluorescence), Chemical (CaCl2) method - DW: 805.596 A.U.
E. coli DH5α cells [2]
  Penetration efficiency (TAMRA FI): 1458.36
E. coli DH5α cells [3]; replicate 1
  Cell penetration efficiency (TAMRA fluorescence), Control: 29.8568 A.U.
E. coli DH5α cells [3]; replicate 2
  Cell penetration efficiency (TAMRA fluorescence), Control: 31.0533 A.U.
E. coli DH5α cells [3]; replicate 3
  Cell penetration efficiency (TAMRA fluorescence), Control: 36.163 A.U.
E. coli DH5α cells [4]; replicate 1
  Max OD (%) (Figure 3f): 73.0516%
E. coli DH5α cells [4]; replicate 2
  Max OD (%) (Figure 3f): 73.4005%
E. coli DH5α cells [4]; replicate 3
  Max OD (%) (Figure 3f): 79.5657%
E. coli DH5α cells [4]
  Growth rate (%): 75.3393%
  Anti-bacterial activity: Safe

## ppTG1 (GLFKALLKLLKSLWKLLLKA; also: TAMRA label, position not given here) [CPP 16, TAMRA-labeled CPP of the 98-CPP library, one of five used to evaluate delivery methods]
E. coli DH5α cells [1]; replicate 1
  Cell penetration efficiency (TAMRA fluorescence), Electrooration - Tris buffer: 299.308 A.U.
  Cell penetration efficiency (TAMRA fluorescence), Electrooration - DW: 116.793 A.U.
E. coli DH5α cells [1]; replicate 2
  Cell penetration efficiency (TAMRA fluorescence), Electrooration - Tris buffer: 307.97 A.U.
  Cell penetration efficiency (TAMRA fluorescence), Electrooration - DW: 316.678 A.U.
E. coli DH5α cells [1]; replicate 3
  Cell penetration efficiency (TAMRA fluorescence), Electrooration - Tris buffer: 322.066 A.U.
  Cell penetration efficiency (TAMRA fluorescence), Electrooration - DW: 302.379 A.U.
E. coli DH5α cells [2]; replicate 1
  Cell penetration efficiency (TAMRA fluorescence), Chemical (CaCl2) method - Tris buffer: 251.992 A.U.
  Cell penetration efficiency (TAMRA fluorescence), Chemical (CaCl2) method - DW: 201.023 A.U.
E. coli DH5α cells [2]; replicate 2
  Cell penetration efficiency (TAMRA fluorescence), Chemical (CaCl2) method - Tris buffer: 38.28 A.U.
  Cell penetration efficiency (TAMRA fluorescence), Chemical (CaCl2) method - DW: 237.812 A.U.
E. coli DH5α cells [2]; replicate 3
  Cell penetration efficiency (TAMRA fluorescence), Chemical (CaCl2) method - Tris buffer: 55.663 A.U.
  Cell penetration efficiency (TAMRA fluorescence), Chemical (CaCl2) method - DW: 176.507 A.U.
E. coli DH5α cells [2]; replicate 4
  Cell penetration efficiency (TAMRA fluorescence), Chemical (CaCl2) method - Tris buffer: 85.7449 A.U.
E. coli DH5α cells [2]; replicate 5
  Cell penetration efficiency (TAMRA fluorescence), Chemical (CaCl2) method - Tris buffer: 220.921 A.U.
E. coli DH5α cells [2]
  Penetration efficiency (TAMRA FI): 130.52
E. coli DH5α cells [3]; replicate 1
  Cell penetration efficiency (TAMRA fluorescence), Control: 21.8791 A.U.
E. coli DH5α cells [3]; replicate 2
  Cell penetration efficiency (TAMRA fluorescence), Control: 18.0245 A.U.
E. coli DH5α cells [3]; replicate 3
  Cell penetration efficiency (TAMRA fluorescence), Control: 15.0301 A.U.
E. coli DH5α cells [4]; replicate 1
  Max OD (%) (Figure 3f): 61.1865%
E. coli DH5α cells [4]; replicate 2
  Max OD (%) (Figure 3f): 69.0965%
E. coli DH5α cells [4]; replicate 3
  Max OD (%) (Figure 3f): 63.3967%
E. coli DH5α cells [4]
  Growth rate (%): 64.5599%
  Anti-bacterial activity: Safe

B1: I-SceI (No CPP): meganuclease I-SceI without CPP, control (protein, UniProt P03882 1-235, looked up)
Intron-encoded endonuclease …: MKNIKKNQVMNLGPNSKLLKEYKSQLIELNIEQFEAGIGLILGDAYIRSRDEGKTYCMQFEWKNKAYMDHVCLLYDQWVLSPPHKKERVNHLGNLVITWGAQTFKHQAFNKLANLFIVNNKKTIPNNLVENYLTPMSLAYWFMDDGGKWDYNKNSTNKSIVLNTQSFTFEEVEYLVKGLRNKFQLNCYVKINKNKPIIYIDSMSYLIFYNLIKPYLIPQMMYKLPNTISSETFLK
[5]; plasmid with ColE1 origin (15–20 copies), same protocol, replicate 1
  Plasmid removal efficiency (%): 19.3%
[5]; plasmid with ColE1 origin (15–20 copies), same protocol, replicate 2
  Plasmid removal efficiency (%): 13.3%
[5]; plasmid with ColE1 origin (15–20 copies), same protocol, replicate 3
  Plasmid removal efficiency (%): 14.8%
[5]; plasmid with RSF1030 origin (>100 copies), same protocol, replicate 1
  Plasmid removal efficiency (%): 17.57%
[5]; plasmid with RSF1030 origin (>100 copies), same protocol, replicate 2
  Plasmid removal efficiency (%): 16.88%
[5]; plasmid with RSF1030 origin (>100 copies), same protocol, replicate 3
  Plasmid removal efficiency (%): 17.79%
[5]; plasmid with pSC101 origin (~5 copies), 50 μL protein (0.05 μg/μL), electroporation, Tris-HCl pH 7.5 3 h, CutSmart 2 h 37 °C, 2 mM NiCl2 selection, replicate 1
  Plasmid removal efficiency (%): 16.6%
[5]; plasmid with pSC101 origin (~5 copies), 50 μL protein (0.05 μg/μL), electroporation, Tris-HCl pH 7.5 3 h, CutSmart 2 h 37 °C, 2 mM NiCl2 selection, replicate 2
  Plasmid removal efficiency (%): 15%
[5]; plasmid with pSC101 origin (~5 copies), 50 μL protein (0.05 μg/μL), electroporation, Tris-HCl pH 7.5 3 h, CutSmart 2 h 37 °C, 2 mM NiCl2 selection, replicate 3
  Plasmid removal efficiency (%): 15.64%
